Experimental data taken from patent US11981719 (ALTEOGEN, dated 2024).
Positions count from the first letter of the chain named.

T1: hGH receptor on hGHR/Luc/HEK293F cells (human, UniProt P10912 19-638)
T1 sequence (looked up): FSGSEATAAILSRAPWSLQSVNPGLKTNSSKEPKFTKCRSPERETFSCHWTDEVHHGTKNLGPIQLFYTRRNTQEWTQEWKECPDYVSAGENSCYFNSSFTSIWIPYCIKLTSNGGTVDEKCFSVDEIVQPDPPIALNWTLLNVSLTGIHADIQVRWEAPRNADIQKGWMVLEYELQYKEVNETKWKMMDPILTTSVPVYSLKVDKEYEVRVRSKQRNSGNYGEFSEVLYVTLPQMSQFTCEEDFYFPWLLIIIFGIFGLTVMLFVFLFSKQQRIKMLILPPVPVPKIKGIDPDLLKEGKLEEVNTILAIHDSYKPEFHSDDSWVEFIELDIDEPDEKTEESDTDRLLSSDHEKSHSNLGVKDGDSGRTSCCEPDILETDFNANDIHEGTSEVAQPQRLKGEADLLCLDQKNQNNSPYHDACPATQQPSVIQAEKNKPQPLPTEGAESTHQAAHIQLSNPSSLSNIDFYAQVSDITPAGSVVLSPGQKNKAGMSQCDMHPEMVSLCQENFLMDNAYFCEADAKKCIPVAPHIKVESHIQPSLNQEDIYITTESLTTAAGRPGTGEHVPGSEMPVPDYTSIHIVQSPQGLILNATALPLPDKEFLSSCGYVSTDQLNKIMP

T2: recombinant hGH receptor Fc chimera (human, UniProt P10912 19-264)
T2 construct: also called hGH receptor chimera; not shown: Fc part of the chimera
T2 sequence (looked up): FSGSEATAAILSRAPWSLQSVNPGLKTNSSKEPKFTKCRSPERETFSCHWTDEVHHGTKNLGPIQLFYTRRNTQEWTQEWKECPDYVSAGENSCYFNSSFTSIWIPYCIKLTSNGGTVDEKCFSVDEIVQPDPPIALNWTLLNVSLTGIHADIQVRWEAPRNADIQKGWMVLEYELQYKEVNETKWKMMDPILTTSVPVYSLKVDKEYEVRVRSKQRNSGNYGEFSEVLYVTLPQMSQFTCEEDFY

B1: hGH-A3 (ligand)
chain: FPTIPLSRLFDNAMLRAHRLNQLAFDTYQEFEEAYIPKEQKYSFLQNPQTSLCFSESIPTPSNREETQQKSNLELLRISLLLIQSWLEPVQFLRSVFANSLVYGASDSNVYDLLKDLEEKIQTLMGRLEDGSPRTGQIFKQTYSKFDTNSHNDDALLKNYGLLYCFRKDMDKVSTFLRIVQCRSVEGSCGFEDPQGDAANKTDTSHHDQDHPTFNKITPNLAEFAFSLYRQLAHQSNSTNIFFSPVSIATAFAMLSLGTKADTHDEILEGLNFNLTEIPEAQIHEGFQELLHTLNQPDSQLQLTTGNGLFLSEGLKLVDKFLEDVKKLYHSEAFTVNFGDTEEAKKQINDYVEKGTQGKIVDLVKELDRDTVFALVNYIFFKGKWERPFEVKDTEEEDFHVDQVTTVKVPMMKRLGMFNIQHCKKLSSWVLLMKYLGNATAIFFLPDEGKLQHLENELTHDIITKFLENEDRRSASLHLPKLSITGTYDLKSVLGQLGITKVFSNGADLSGVTEEAPLKLSKAVHKAVLTIDEKGTEAAGAMFLEAINMSIPPEVKFNKPFVFLMIDQNTKSPLFMGKVVNPTQK
notes: also called hGHRA-NexP
B2: hGH-A6 (ligand)
chain: B1 chain with F54P, R64K, F176Y
notes: also called hGHRA-NexP
B3: hGH-A8 (ligand)
chain: B1 chain with H18D, R167N, K168A, D171S, K172R, I179T
notes: also called hGHRA-NexP
B4: hGH-A4 (ligand)
chain: B1 chain with H18D, I179T
notes: also called hGHRA-NexP
B5: hGH-A7 (ligand)
chain: B1 chain with F54P, R64K, R167N, D171S, F176Y
notes: also called hGHRA-NexP
B6: hGH-A9 (ligand)
chain: B1 chain with H18D, Q46K, I179T
notes: also called hGHRA-NexP
B7: hGH-A10 (ligand)
chain: EDPQGDAANKTDTSHHDQDHPTFNKITPNLAEFAFSLYRQLAHQSNSTNIFFSPVSIATAFAMLSLGTKADTHDEILEGLNFNLTEIPEAQIHEGFQELLHTLNQPDSQLQLTTGNGLFLSEGLKLVDKFLEDVKKLYHSEAFTVNFGDTEEAKKQINDYVEKGTQGKIVDLVKELDRDTVFALVNYIFFKGKWERPFEVKDTEEEDFHVDQVTTVKVPMMKRLGMFNIQHCKKLSSWVLLMKYLGNATAIFFLPDEGKLQHLENELTHDIITKFLENEDRRSASLHLPKLSITGTYDLKSVLGQLGITKVFSNGADLSGVTEEAPLKLSKAVHKAVLTIDEKGTEAAGAMFLEAINMSIPPEVKFNKPFVFLMIDQNTKSPLFMGKVVNPTQKFPTIPLSRLFDNAMLRAHRLNQLAFDTYQEFEEAYIPKEQKYSFLQNPQTSLCPSESIPTPSNKEETQQKSNLELLRISLLLIQSWLEPVQFLRSVFANSLVYGASDSNVYDLLKDLEEKIQTLMGRLEDGSPRTGQIFKQTYSKFDTNSHNDDALLKNYGLLYCFNKDMSKVSTYLRIVQCRSVEGSCGF
notes: also called hGHRA-NexP
B8: hGH-A11 (ligand)
chain: B7 chain with H412D, Q440K, P448F, K458R, N561R, S565D, Y570F, I573T
notes: also called hGHRA-NexP

Legend:
[1] = molecular target: T1, hGH receptor on hGHR/Luc/HEK293F cells; test: cell-based or functional assay
[2] = molecular target: T2, recombinant hGH receptor Fc chimera; test: ELISA on plate-coated recombinant hGH receptor Fc chimera, detected with biotinylated anti-hGH polyclonal antibody
Experimental: After additional washing step, 3,3',5,5'-tetramethylbenzidine (TMB) was added to each well to allow TMB reaction. Absorbance signals from the reaction were recorded at 450 nm to 650 nm.

Molecule	Relative inhibitory potency (relative to Pegvisomant) [1]	Relative binding potency (relative to Pegvisomant) [2]	Relative inhibitory potency [1]	Relative binding potency [2]
Pegvisomant (ligand)	1	1	–	–
B1	–	–	0.957 relative to Pegvisomant	0.925 relative to Pegvisomant
B2	–	–	1.42 relative to Pegvisomant	3.37 relative to Pegvisomant
B3	–	–	1.42 relative to Pegvisomant	4.64 relative to Pegvisomant
B4	–	–	1.22 relative to Pegvisomant	2.31 relative to Pegvisomant
B5	–	–	1.84 relative to Pegvisomant	4.73 relative to Pegvisomant
B6	–	–	1.89 relative to Pegvisomant	4.58 relative to Pegvisomant
B7	–	–	17.7 relative to Pegvisomant	6.08 relative to Pegvisomant
B8	–	–	17.3 relative to Pegvisomant	9.95 relative to Pegvisomant
